“Also recorded” adds a separate entry of the source. Bounds are passed on as bounds.

In assay [1] the test system is skin biopsies from two patients with sGvHD. The assay can be described thus: Sclerotic GvHD patient skin explants, fibrosis protein markers in supernatant by ELISA. It counts as cell-based, human. Particulars: 2.5 mg/ml, 10 days. The method, then:
Paired skin biopsies from right arm and left abdomen of two patients with sGvHD were incubated with 2.5 mg/ml hEreg NAb1 or isotype control IgG1 antibody for 10 days. (FIG. 21A) Photos of patient fibrotic skin. (FIGS. 21B-21C) Media was changed every 48 hours and the level of fibrosis protein markers in the supernatant was quantified by ELISA (Abcam kits ab213831, ab210966, ab219046, ab187394, ab179886).
It was then investigated whether hEreg NAb1 could reduce fibrosis similar to the epiregulin neutralizing rat antibody. To investigate whether hEreg NAb1 reduces fibrosis protein markers, hEreg NAb1 was tested on skin biopsies from two patients with the fibrotic form of graft-vs-host disease (sGvHD). Patient I was a person 3 years post stem cell transplant from matched unrelated donor for treatment of myelodysplastic syndrome not on any immunosuppressive therapies. Patient 2 was a person 3 years post stem cell transplant from matched unrelated donor for treatment of acute myelogenous leukemia not on any immunosuppressive therapies. Paired 4 mm skin biopsies from the most affected skin of the right arm of patient 1 and left abdomen of patient 2 were obtained (FIG. 21A). Skin explants were incubated with 2.5 mg/ml hEreg NAb1 or isotype control IgG1 antibody for 10 days.
On the technique in general: An ELISA detects its analyte on a solid surface through an enzyme-linked reagent.

Assay [2] deals with T1, recombinant human epiregulin (rhEreg) (Homo sapiens, UniProt O14944).
T1 construct: recombinant human epiregulin containing the epidermal growth factor (EGF) domain; purchased R&D Biosciences 1195-EP
T1 sequence (O14944 63-108 limits assumed): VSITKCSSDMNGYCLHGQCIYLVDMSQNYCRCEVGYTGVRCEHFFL
Nature of the assay: Inhibition of epiregulin-induced proliferation of human foreskin fibroblasts (CyQUANT). Particulars: rhEreg 100 ng/ml. The assay is classed as cell-based. The protocol:
Human foreskin fibroblasts (HFFs) were incubated with recombinant human epiregulin (rhEreg) in Dulbecco's Modified Eagle Medium (DMEM) containing 1% fetal bovine serum (FBS), n=3 per rhEreg concentration (left panel). HFF were incubated in media containing rhEreg 100 ng/ml along with commercially available rat anti-human/mouse epiregulin antibody (middle panel) or hEreg NAb1 (right panel), n=4 (middle panel), n=6 (right panel) per antibody concentration. Data points show mean and standard error, which were fit by interpolating from a sigmoidal standard curve. Proliferation was measured by green fluorescence protein (GFP) fluorescence at day 3 using CyQUANT Direct Cell Proliferation Assay (Invitrogen) on Synergy HTX plate reader (Biotek).
To gauge their ability to inhibit epiregulin, whether the two unique antibodies produced by the hybridoma clones could inhibit recombinant epiregulin protein in vitro was tested. Characteristic of other EGFR ligands, recombinant human epiregulin (same as used for Alloy mouse immunization) induced proliferation of cultured human foreskin fibroblasts (HFF, ATCC #SCRC-1041) (FIG. 5, left panel). Maximal proliferation occurred at 100 ng/ml, so this concentration was used in subsequent inhibition experiments. […]

The target in assay [3] is T2, full-length epiregulin protein (Homo sapiens, UniProt O14944).
T2 construct: Cultured HFF expressed endogenous full-length epiregulin; endogenous in cells; host or cells: human foreskin fibroblasts (HFF, ATCC #SCRC-1041)
T2 sequence (O14944 63-169): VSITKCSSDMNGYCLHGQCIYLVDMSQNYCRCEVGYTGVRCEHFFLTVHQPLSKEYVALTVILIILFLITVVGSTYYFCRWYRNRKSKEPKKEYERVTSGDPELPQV
The assay can be described thus: HFF growth with increasing antibody in the absence of exogenous EGFR ligands. The assay is classed as cell-based. Particulars: increasing antibody concentrations, no exogenous EGFR ligands. The method, then:
HFF were incubated with increasing concentrations of hEreg NAb1 in the absence of exogenous epidermal growth factor receptor (EGFR) ligands.
To gauge their ability to inhibit epiregulin, whether the two unique antibodies produced by the hybridoma clones could inhibit recombinant epiregulin protein in vitro was tested. Characteristic of other EGFR ligands, recombinant human epiregulin (same as used for Alloy mouse immunization) induced proliferation of cultured human foreskin fibroblasts (HFF, ATCC #SCRC-1041) (FIG. 5, left panel). Maximal proliferation occurred at 100 ng/ml, so this concentration was used in subsequent inhibition experiments. The ability of hEreg NAb1 and a commercially available rat anti-human/mouse neutralizing epiregulin antibody (R&D Systems MAB1068) to inhibit epiregulin-induced HFF proliferation was then compared. […] Cultured HFF expressed endogenous full-length epiregulin, but little to no other EGFR ligands. If HFF depend on the expression of epiregulin for growth and survival, inhibition of the endogenously produced protein should reduce their growth. […] Thus, hEreg NAb1 inhibits both the recombinant and full-length human epiregulin proteins.

Assay [4] has as its target T3, recombinant mouse epiregulin (rmEreg) (Mus musculus, UniProt Q61521).
T3 sequence (Q61521 56-101 limits assumed): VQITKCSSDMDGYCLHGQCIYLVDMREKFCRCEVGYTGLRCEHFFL
The assay can be described thus: Inhibition of HFF proliferation induced by mouse epiregulin. It counts as cell-based. Particulars: rmEreg 100 ng/ml. The protocol:
HFF were incubated with recombinant mouse epiregulin (rmEreg) for 3 days (left panel). HFF were incubated in media containing rmEreg 100 ng/ml along with rat anti-human/mouse epiregulin antibody (middle panel) or hEreg NAb1 (right panel), n=4 (middle panel), n=6 (right panel) per antibody concentration. Data points show mean and standard error, which were fit by interpolating from a sigmoidal standard curve.
In order to validate the humanized antibody in mouse models of fibrosis, it was necessary to establish whether it cross-reacted with the mouse epiregulin homologue. To setup the assay, if recombinant mouse epiregulin could induce HFF proliferation was tested first, which it did similar to the human protein (FIG. 7, left panel). […] In contrast, hEreg NAb1 required >100-fold higher concentration to inhibit HFF proliferation by mouse epiregulin protein (FIG. 7, right panel). […] These findings are likely due to raising the humanized antibody in mice, which would negatively select out B cells that produce a self-reactive antibody.

The subject of the next assay is other EGFR ligands. The assay can be described thus: Rescue of HFF growth by other EGFR ligands in presence of hEreg NAb1. The assay is classed as cell-based, human. Particulars: 5 mg/ml hEreg NAb1; recombinant EGFR ligands 0.1, 1, 10 ng/ml; 3 days. The method, then:
HFF were incubated with 5 mg/ml hEreg NAb1 alone and recombinant EGFR ligands at 0.1 ng/ml. 1 ng/ml, and 10 ng/ml for 3 days prior to quantification.
Next it was considered whether hEreg NAb1 could inhibit other EGFR ligands (commercially available from R&D Systems). HFF was incubated with 5 mg/ml of hEreg NAb1 alone, which as discussed above, inhibits epiregulin-driven growth of HFF. Whether addition of the other six EGFR ligands could rescue HFF growth through their activation of EGFR was tested. Compared to the hEreg NAb1 alone control, the lowest concentration tested of each EGFR ligand, 0.1 ng/ml, was sufficient to rescue HFF growth (FIG. 8).

Setting [5] is: skin explants from either patient.

B1: hEreg NAb1: humanized epiregulin neutralizing antibody from hybridoma wells M3-5; VH SEQ ID NO: 1, VL SEQ ID NO: 6 (antibody, V domains shown)
VH: HLQLQESGPGLVKSSETLSLTCSVSGGSISSSGYYWGWIRQPPGKGLEWIGSFYYSGNTYYNPSLKSRVTISADTSKSQYSLKLSSVTAADTAVYYCARHPFNWNDHYHYMDVWGNGTTVTVSS
VL: DIQMTQSPSSLSASVGDSVTITCRASQSISNYLNWYQKKPGKAPKVLIYAASSLQSGVPSRFSGSGSGTDFTLTISSLQPEDFATYYCQQSYITSITFGQGTRLEIK
For B1, the “fibrosis markers in sclerotic GvHD skin explants” value in assay [1] (vs isotype control IgG1) was “reduces fibrosis markers”. In assay [1] (patient 1, right arm), the “MCP-1 in supernatant vs IgG1 isotype control” value is given as “significantly reduced expression”, the “TIMP1 in supernatant vs IgG1 isotype control” value is recorded as “significantly reduced expression” and the “TNC in supernatant vs IgG1 isotype control” value was “significantly reduced expression”. In assay [1] (patient 2, left abdomen), the “TNC in supernatant vs IgG1 isotype control” value is recorded as “significant reduction”. Moreover, in assay [1] (setting [5]), the “fibronectin (FN) expression” value was “did not reduce expression” and the “pro-collagen I alpha 1/pro-collagen I N-terminal propeptide (PINP) expression” value is “did not reduce expression”. In addition, the “inhibition of human epiregulin-induced HFF proliferation” value in assay [2] (3 days) is recorded as “inhibited HFF proliferation in a concentration-dependent manner; also recorded: inhibits”. Further, in assay [2] (day 3), the “IC50, inhibition of epiregulin-induced HFF proliferation” value was in the range of 0.1 to 0.3 µg/mL. Moreover, the “HFF growth / inhibition of endogenous full-length epiregulin” value in assay [3] is given as “decreased growth was observed; also recorded: inhibits full-length epiregulin protein”. Further, the “cross-reactivity for mouse epiregulin protein” value in assay [4] (HFF proliferation) is “little cross-reactivity; also recorded: low cross-reactivity”. Also, in assay [4] (HFF), the “fold higher concentration required to inhibit HFF proliferation by mouse epiregulin protein” value is above 100 fold. Besides, the “cross-reactivity with / neutralization of other EGFR ligands” value with other EGFR ligands is on record as “does not cross-react; also recorded: does not neutralize”.

The values above are taken from patent US20250154238A1, “METHODS AND COMPOSITIONS FOR TREATING AND PREVENTING FIBROSIS” (YALE UNIVERSITY, priority 2022, published 2025).
